{"source": "paper PMC2884013", "origin": "cited, not measured here", "biological_target": "Glu78 (UniProt position 78, RISTVEHLNAA)", "assay": "kinetics", "conditions": "Zn2+-bound wild-type enzyme", "data": [{"substance": "UDP-3-O-(R-3-hydroxymyristoyl)-N-acetylglucosamine deacetylase (LpxC, EcLpxC) (Escherichia coli)", "values": [{"measurement": "pKa", "value": "6.2 ± 0.2"}]}]}
